# Data published in publication PMC11047093.
# Changes are numbered by the printed parent chain.
# T1: His-APOBEC2 (Mus musculus, UniProt Q9WV35 1-224)
# T1 sequence: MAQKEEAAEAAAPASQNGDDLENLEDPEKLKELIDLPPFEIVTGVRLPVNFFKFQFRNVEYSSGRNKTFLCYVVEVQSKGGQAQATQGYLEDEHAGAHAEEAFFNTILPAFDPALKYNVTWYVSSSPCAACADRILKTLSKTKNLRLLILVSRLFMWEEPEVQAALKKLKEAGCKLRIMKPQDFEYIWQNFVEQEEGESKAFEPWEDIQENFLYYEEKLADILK
# T2: His-APOBEC2 E100A (Mus musculus, UniProt Q9WV35 1-224, E100A)
# T2 sequence: T1 sequence with E100A
# Assays:
# His-APOBEC2 = molecular target: T1, His-APOBEC2; test: MST
# His-APOBEC2 E100A = molecular target: T2, His-APOBEC2 E100A; test: MST
Binder,Kd (His-APOBEC2) [µM],binding result (His-APOBEC2 E100A)
GGCGGCGCGGCCCCGCCCCCTCCTCCGGC (ssDNA) [SP/KLF motif],0.926 ± 0.243,no binding
TCTCAAGAAAAAAAAAAAAAGAC (ssDNA) [A-tract (poly-A) motif],,no binding
